Laboratory results: US20170204176A1 (MacroGenics, published 2017)

B1: EphA2 mAb 1×CD3 mAb 2×DR5 mAb 1 (other)
chain 1: DIQMTQTTSSLSASLGDRITISCRASQDISNYLNWYQQKPDGTVKLLIYYTSRLHSGVPSRFSGSGSGTDYSLTISNLEQEDIATYFCQQGYTLYTFGGGTKLEIKGGGSGGGGEVQLVESGGGLVQPGGSLRLSCAASGFTFSTYAMNWVRQAPGKGLEWVGRIRSKYNNYATYYADSVKGRFTISRDDSKNSLYLQMNSLKTEDTAVYYCVRHGNFGNSYVSWFAYWGQGTLVTVSSGGCGGGEVAALEKEVAALEKEVAALEKEVAALEKGGGDKTHTCPPCPAPEAAGGPSVFLFPPKPKDTLMISRTPEVTCVVVDVSHEDPEVKFNWYVDGVEVHNAKTKPREEQYNSTYRVVSVLTVLHQDWLNGKEYKCKVSNKALPAPIEKTISKAKGQPREPQVYTLPPSREEMTKNQVSLWCLVKGFYPSDIAVEWESNGQPENNYKTTPPVLDSDGSFFLYSKLTVDKSRWQQGNVFSCSVMHEALHNHYTQKSLSLSPGK
chain 2: QAVVTQEPSLTVSPGGTVTLTCRSSTGAVTTSNYANWVQQKPGQAPRGLIGGTNKRAPWTPARFSGSLLGGKAALTITGAQAEDEADYYCALWYSNLWVFGGGTKLTVLGGGGSGGGGQVQLKESGPGLVAPSQSLSITCTVSGFSLSRYSVHWVRQPPGKGLEWLGMIWGGGSTDYNSALKSRLSISKDNSKSQVFLKMNSLQTDDTAMYYCARKHGNYYTMDYWGQGTSVTVSSGGCGGGKVAALKEKVAALKEKVAALKEKVAALKE
heavy: EVKFLESGGGLVQPGGSLKLSCVASGFDFSRYWMSWVRQAPGKGLEWIGEINPDSNTINYTPSLKDKFIISRDNAKNTLYLQMTKVRSEDTALYYCTRRAYYGNPAWFAYWGQGTLVTVSSASTKGPSVFPLAPSSKSTSGGTAALGCLVKDYFPEPVTVSWNSGALTSGVHTFPAVLQSSGLYSLSSVVTVPSSSLGTQTYICNVNHKPSNTKVDKRVEPKSCDKTHTCPPCPAPEAAGGPSVFLFPPKPKDTLMISRTPEVTCVVVDVSHEDPEVKFNWYVDGVEVHNAKTKPREEQYNSTYRVVSVLTVLHQDWLNGKEYKCKVSNKALPAPIEKTISKAKGQPREPQVYTLPPSREEMTKNQVSLSCAVKGFYPSDIAVEWESNGQPENNYKTTPPVLDSDGSFFLVSKLTVDKSRWQQGNVFSCSVMHEALHNRYTQKSLSLSPGK
light: DIVLTQSPASLAVSLGQRATISCRASKSVSSSGYSYMHWYQQKPGQPPKVLIFLSSNLDSGVPARFSGSGSGTDFTLNIHPVEDGDAATYYCQHSRDLPPTFGGGTKLEIKRTVAAPSVFIFPPSDEQLKSGTASVVCLLNNFYPREAKVQWKVDNALQSGNSQESVTEQDSKDSTYSLSSTLTLSKADYEKHKVYACEVTHQGLSSPVTKSFNRGEC
notes: a Fab-type heavy chain with hole Fc; a kappa light chain
B2: EphA2 mAb 1×CD3 mAb 2×gpA33 mAb 1 (other)
chain 1: B1 chain 1
chain 2: B1 chain 2
heavy: QVQLVQSGAEVKKPGASVKVSCKASGYTFTGSWMNWVRQAPGQGLEWIGRIYPGDGETNYNGKFKDRVTITADKSTSTAYMELSSLRSEDTAVYYCARIYGNNVYFDVWGQGTTVTVSSASTKGPSVFPLAPSSKSTSGGTAALGCLVKDYFPEPVTVSWNSGALTSGVHTFPAVLQSSGLYSLSSVVTVPSSSLGTQTYICNVNHKPSNTKVDKRVEPKSCDKTHTCPPCPAPEAAGGPSVFLFPPKPKDTLMISRTPEVTCVVVDVSHEDPEVKFNWYVDGVEVHNAKTKPREEQYNSTYRVVSVLTVLHQDWLNGKEYKCKVSNKALPAPIEKTISKAKGQPREPQVYTLPPSREEMTKNQVSLSCAVKGFYPSDIAVEWESNGQPENNYKTTPPVLDSDGSFFLVSKLTVDKSRWQQGNVFSCSVMHEALHNRYTQKSLSLSPGK
light: DIQLTQSPSFLSASVGDRVTITCSARSSISFMYWYQQKPGKAPKLLIYDTSNLASGVPSRFSGSGSGTEFTLTISSLEAEDAATYYCQQWSSYPLTFGQGTKLEIKRTVAAPSVFIFPPSDEQLKSGTASVVCLLNNFYPREAKVQWKVDNALQSGNSQESVTEQDSKDSTYSLSSTLTLSKADYEKHKVYACEVTHQGLSSPVTKSFNRGEC
B3: gpA33 mAb 1×CD3 mAb 2×DR5 mAb 1 (other)
chain 1: DIQLTQSPSFLSASVGDRVTITCSARSSISFMYWYQQKPGKAPKLLIYDTSNLASGVPSRFSGSGSGTEFTLTISSLEAEDAATYYCQQWSSYPLTFGQGTKLEIKGGGSGGGGEVQLVESGGGLVQPGGSLRLSCAASGFTFSTYAMNWVRQAPGKGLEWVGRIRSKYNNYATYYADSVKGRFTISRDDSKNSLYLQMNSLKTEDTAVYYCVRHGNFGNSYVSWFAYWGQGTLVTVSSGGCGGGEVAALEKEVAALEKEVAALEKEVAALEKGGGDKTHTCPPCPAPEAAGGPSVFLFPPKPKDTLMISRTPEVTCVVVDVSHEDPEVKFNWYVDGVEVHNAKTKPREEQYNSTYRVVSVLTVLHQDWLNGKEYKCKVSNKALPAPIEKTISKAKGQPREPQVYTLPPSREEMTKNQVSLWCLVKGFYPSDIAVEWESNGQPENNYKTTPPVLDSDGSFFLYSKLTVDKSRWQQGNVFSCSVMHEALHNHYTQKSLSLSPGK
chain 2: QAVVTQEPSLTVSPGGTVTLTCRSSTGAVTTSNYANWVQQKPGQAPRGLIGGTNKRAPWTPARFSGSLLGGKAALTITGAQAEDEADYYCALWYSNLWVFGGGTKLTVLGGGGSGGGGQVQLVQSGAEVKKPGASVKVSCKASGYTFTGSWMNWVRQAPGQGLEWIGRIYPGDGETNYNGKFKDRVTITADKSTSTAYMELSSLRSEDTAVYYCARIYGNNVYFDVWGQGTTVTVSSGGCGGGKVAALKEKVAALKEKVAALKEKVAALKE
heavy: B1 heavy
light: B1 light
B4: gpA33 mAb 1 x CD3 mAb 2 (bispecific antibody)
first polypeptide chain (VL gpA33 mAb 1 - Linker 1 - VH CD3 mAb 2 D65G - ASTKG - cysteine-containing E-coil): DIQLTQSPSFLSASVGDRVTITCSARSSISFMYWYQQKPGKAPKLLIYDTSNLASGVPSRFSGSGSGTEFTLTISSLEAEDAATYYCQQWSSYPLTFGQGTKLEIKGGGSGGGGEVQLVESGGGLVQPGGSLRLSCAASGFTFSTYAMNWVRQAPGKGLEWVGRIRSKYNNYATYYADSVKGRFTISRDDSKNSLYLQMNSLKTEDTAVYYCVRHGNFGNSYVSWFAYWGQGTLVTVSSASTKGEVAACEKEVAALEKEVAALEKEVAALEK
second polypeptide chain (VL CD3 mAb 2 - Linker 1 - VH gpA33 mAb 1 - ASTKG - cysteine-containing K-coil): QAVVTQEPSLTVSPGGTVTLTCRSSTGAVTTSNYANWVQQKPGQAPRGLIGGTNKRAPWTPARFSGSLLGGKAALTITGAQAEDEADYYCALWYSNLWVFGGGTKLTVLGGGGSGGGGQVQLVQSGAEVKKPGASVKVSCKASGYTFTGSWMNWVRQAPGQGLEWIGRIYPGDGETNYNGKFKDRVTITADKSTSTAYMELSSLRSEDTAVYYCARIYGNNVYFDVWGQGTTVTVSSASTKGKVAACKEKVAALKEKVAALKEKVAALKE
B5: DR5 mAb 1×CD3 mAb 2 diabody (bispecific antibody)
chain 1: DIVLTQSPASLAVSLGQRATISCRASKSVSSSGYSYMHWYQQKPGQPPKVLIFLSSNLDSGVPARFSGSGSGTDFTLNIHPVEDGDAATYYCQHSRDLPPTFGGGTKLEIKGGGSGGGGEVQLVESGGGLVQPGGSLRLSCAASGFTFSTYAMNWVRQAPGKGLEWVGRIRSKYNNYATYYADSVKGRFTISRDDSKNSLYLQMNSLKTEDTAVYYCVRHGNFGNSYVSWFAYWGQGTLVTVSSASTKGEVAACEKEVAALEKEVAALEKEVAALEK
chain 2: QAVVTQEPSLTVSPGGTVTLTCRSSTGAVTTSNYANWVQQKPGQAPRGLIGGTNKRAPWTPARFSGSLLGGKAALTITGAQAEDEADYYCALWYSNLWVFGGGTKLTVLGGGGSGGGGEVKFLESGGGLVQPGGSLKLSCVASGFDFSRYWMSWVRQAPGKGLEWIGEINPDSNTINYTPSLKDKFIISRDNAKNTLYLQMTKVRSEDTALYYCTRRAYYGNPAWFAYWGQGTLVTVSAASTKGKVAACKEKVAALKEKVAALKEKVAALKE
notes: Two-chain bi-specific DR5×CD3 diabody

Tests used:
[1] = target: T1, EphA2 on EphA2-expressing CHO cells (UniProt P29317 24-976, limits assumed); experiment: FACS on EphA2-expressing CHO cells (Log MFI)
T1 construct: whole, on cells; EphA2 mAb 1 is called an anti-human EphA2 antibody; also called EphA2-expressing CHO target cells

[2] = target: T2, DR5 on DR5-expressing CHO cells (UniProt O14763 56-440, limits assumed); experiment: FACS on DR5-expressing CHO cells (Log MFI)
T2 construct: whole, on cells; also called DR5-expressing CHO target cells
From the text: The ability of Tri-Specific Binding Molecules of the present invention to bind to target cells was investigated.

[3] = target: T3, EphA2 on DU145 human prostate cells (human, UniProt P29317 24-976); experiment: FACS on DU145 cells (gpA33- EphA2+ DR5+), Log MFI; only the EphA2 domain has its antigen on these cells
T3 construct: whole, on cells; DU145 cells carry both EphA2 and DR5; also called DU145 cells (express EphA2 and DR5, not gpA33)

[4] = target: T4, DR5 on DU145 human prostate cells (human, UniProt O14763 56-440); experiment: FACS on DU145 cells (gpA33- EphA2+ DR5+), Log MFI
T4 construct: whole, on cells; DU145 cells carry both EphA2 and DR5; also called DU145 cells (express EphA2 and DR5, not gpA33)

[5] = target: T3, EphA2 on DU145 human prostate cells; experiment: FACS on DU145 cells (gpA33- EphA2+ DR5+), Log MFI
[6] = target: T5, His-tagged cynomolgus monkey DR5 (cynomolgus monkey (Macaca fascicularis)); experiment: Biacore (SPR); DR5 mAb 1×CD3 mAb 2 diabody with His-tagged cynomolgus monkey DR5
T5 construct: also called His-tagged DR5
Method: Bi-specific DR5×CD3 diabodies were incubated with His-tagged DR5 and the kinetics of binding was determined via Biacore analysis.

His-tagged human DR5 = target: T6, His-tagged human DR5 (human, UniProt O14763 56-210, limits assumed); experiment: Biacore (SPR); DR5 mAb 1×CD3 mAb 2 diabody with His-tagged human DR5
T6 construct: whole precursor entry named; also called His-tagged DR5; not shown: His tag

Row | Binder | EC50 (read off the curve) [1] [nM] | EC50 (read off the curve) [2] [nM] | binding result [2] | binding result [1] | other results
1 | B1 | ~0.7 | ~0.9 | – | – | –
2 | B2 | ~0.9 | – | no binding | – | EC50 (read off the curve) [3]: ~1 nM
3 | B3 | – | ~0.9 | – | no binding | –
4 | B4 | – | – | no binding | no binding | binding result [4]: no binding; binding result [5]: no binding
5 | B5 | – | – | – | – | Kd [6]: 32.5 nM; Kd (His-tagged human DR5): 0.14 nM
